Substrate in this data set: O=C(Cc1ccccc1)Nc1ccc([N+](=O)[O-])c(C(=O)O)c1
In words: purified protein. In kind it is biochemical, Escherichia coli. Particulars: pH 7.5, 25°C, 10 mM phosphate, 0.1 M KCl, hydrolysis.

B1: penicillin acylase from Escherichia coli (EcPA) (Escherichia coli) (protein)
chain 1: EQSSSEIKIVRDEYGMPHIYANDTWHLFYGYGYVVAQDRLFQMEMARRSTQGTVAEVLGKDFVKFDKDIRRNYWPDAIRAQIAALSPEDMSILQGYADGMNAWIDKVNTNPETLLPKQFNTFGFTPKRWEPFDVAMIFVGTMANRFSDSTSEIDNLALLTALKDKYGVSQGMAVFNQLKWLVNPSAPTTIAVQESNYPLKFNQQNSQTA
chain 2: SNMWVIGKSKAQDAKAIMVNGPQFGWYAPAYTYGIGLHGAGYDVTGNTPFAYPGLVFGHNGVISWGSTAGFGDDVDIFAERLSAEKPGYYLHNGKWVKMLSREETITVKNGQAETFTVWRTVHGNILQTDQTTQTAYAKSRAWDGKEVASLLAWTHQMKAKNWQEWTQQAAKQALTINWYYADVNGNIGYVHTGAYPDRQSGHDPRLPVPGTGKWDWKGLLPFEMNPKVYNPQSGYIANWNNSPQKDYPASDLFAFLWGGADRVTEIDRLLEQKPRLTADQAWDVIRQTSRQDLNLRLFLPTLQAATSGLTQSDPRRQLVETLTRWDGINLLNDDGKTWQQPGSAILNVWLTSMLKRTVVAAVPMPFDKWYSASGYETTQDGPTGSLNISVGAKILYEAVQGDKSPIPQAVDLFAGKPQQEVVLAALEDTWETLSKRYGNNVSNWKTPAMALTFRANNFFGVPQAAAEETRHQAEYQNRGTENDMIVFSPTTSDRPVLAWDVVAPGQSGFIAPDGTVDKHYEDQLKMYENFGRKSLWLTKQDVEAHKESQEVLHVQR
notes: heterodimer of alpha (209 residues) and beta (557 residues) chains matured from one pac precursor; modified pBR322 vector with cat gene, expressed in E. coli TG-1, osmotic shock, hydrophobic chromatography; no tag mentioned
Consider B1, for which the Michaelis constant (Km) is 25.0 ± 0.8 µM, the kcat stood at 25 ± 1.4 s⁻¹ and the specificity constant (kcat/Km) was 1e+06 ± 90000 M⁻¹ s⁻¹.
